Results from the DeepSol protein solubility set.

Assay: soluble on expression in E. coli; label from the status in PepcDB or PDB records

Sequence | soluble on expression in E. coli
MAHHHHHHMGISVSHLLERLRTLFEPLEVVCALQLKCLLETRQLDYCNVSLNELQRAEAGLRSLLVDHPLDIEVGAQWEHLEDELQRLHVRFSVPVPTFRLLVRRSARALRSAVRALGWDGKIQRRLWQEEGEEPRDDGVQEPLRAFDAGGLSTCTVDEICNEGGVQDRSAAVFSAVAKLYHHRLALGAQSLVAAERLGPALGANVRAASRVPSLTLPNSAADPTHPRFKADLYAVSPDALSCTAARREAYAAS | not soluble
MLTISNQVQLADWEIELTAIRAQGAGGQNVNKVSSAIHLRFDISRSTLPAFYKERLLKMRDHRITKEGIIIIKAQQFRTQEKNREDALDRLKQLIQSATETQKARKETKPTRSSQHKRMDKKSQRGQTKSMRKKVDYLEHHHHHH | soluble
SLKSLNHISLLCRSVEESISFYQNVLGFLPIRRPDSFDFDGAWLFGHGIGIHLLQSPEPEKLLKKTEINPKDNHISFQCESMEAVEKKLKEMEIEYVRAVVEEGGIQVDQLFFHDPDAFMIEICNCDSLPVIPLAGEMARSCSRLNIRQLVQPTQIHEG | soluble
MGHHHHHHSHMTDPSKLAVAVVCSSNMNRSMEAHNFLAKKGFNVRSYGTGERVKLPGMAFDKPNVYEFGTKYEDIYRDLESKDKEFYTQNGLLHMLDRNRRIKKCPERFQDTKEQFDIIVTVEERVYDLVVMHMESMESVDNRPVHVLNVDVVDNAEDALMGAFVITDMINMMAKSTDLDNDIDELIQEFEERRKRVILHSVLFY | soluble
MGSDKIHHHHHHMADWTDNLPEAAQAYLENRRLDEVECIISDLPGIARGKAVPASKFARQDYFHLPDSIFYQTITGDWGDAAGEEGFIERDMILRPDYSTATAAPWTGDWTLQVIHDAYDRDGDPIPFSPRNVLRRVVSLYHAQGWKPVVAPEMEFFLVARNLDPAKEIEPMMGRSGRPAAARQAYSMTAVDEFGPVIDDIYDFAEAQGFEIDGITQEGGAGQLEINLRHGSPVRLADEVFYFKRLIREAALRHNCFATFMAKPIENEPGSAMHIHHSIVDMETGENIFSGPQGGETDAFYHFIAGLQNHLPSGLAVMAPYVNSYRRYVKDHAAPINLEWGRDNRTTGIRVPLSGPAARRIENRLAGMDCNPYLGIAVSLACGYLGLMEELRPRKQFKGDAYVGEGDIPQVMGDALDLFDEAKALHEVLGPEFARVYSIVKRAEYNEFLQVISPWEREHLLMNV | not soluble
DLTIDNGPEKGDLLVLGWGSTYGAIKKAVEQAREGGLDVAHAHLRYINPFPKNLGAMLGNFKKVLIPENNCGQLLSLIRDKFLIEPVGFSKVQGLPFNEMEIEEKITDILKEL | not soluble
MKNAETPVFKLVLFGPESSLGNALMVELLSRQHEVIAVVDDLNRHSPRPGLHFKIGGLGDAHQAEQGAAGGSAVIALLPALAPGDLPGQARLSEALVAGLARTTIRRLLLVGDFDVLDEPGKYSEVERECVAQVVDGLQRSALHWTLINAPQELAGLGMEHFRSTEGTLEPGLAEPLRRLSRIAAGMVDMLELDLHRSEHLNFVV | not soluble
MVERIEDLNLPNAVIGRLIKEALPESASVSKEARAAIARAASVFAIFVTSSSTALAHKQNHKTITAKDILQTLTELDFESFVPSLTQDLEVYRKVVKEKKESKASKKDSNTAENANASATATAEEAPE | soluble
MSDVKGKSTSGRGLTPKQEKFCQLYIELGNASEAYRQSYDCSKMTTEVINVKASELLNKNGKITVRVEELRQAHQQRHNLTLDNIIADLQEYRDICMGRKPLTITTVVKNAQEGTAQSVNTECFVFEPTGANKALELLGKHLGMFTNKVDVTTDGKPLPTVINVTFSDEPA | not soluble
MRRFQRSTVIDAPRELVWAFHEQADVLEQLTPPWLPVEVVRREGGLGPGAVSEFRLWLGPVPIRWVATHNDDYEPGRCFCDRQSQGPFADWLHRHIFSREGDRTRLIDEVEYALPGGWLPELSVGPVVDAQLERLFAYRQQVTKQWCESRRDAFLQSNRTTKGLQSLLEHHHHHH | soluble
MAHHHHHHMVLTLDCSQAVQNTIRELQDTRAFTDDDGAETIATTWFSDVGLCITGYTRDLVAAINSQGTPSVVVVIQNLHTFADRQRQKVLKIHQRYFNSVLSDTTKVVPVVSQDDYTKILRHMQVSKIRTLKWRDQHPYMAVEEKAYNPETQELTITGHLRGMPLSATQLVHLTNHGTFQVCKIEEVRKGDERVLIETSEAAQRESLQQVQANSTLEDDGFPTDADVLYHQEIAGTHKIRVPAGVSSDQAAWYDTEENIVKDSAPKHQHITMDDEDAFAGDAMSYRTTQTDVDFLKAEDVVRLERMTDEERILEMEKLKELSEEETWNPDMVDTPVNIPARQRFAKYRGMRSFHTGRWDPAENLPPQYAYIYKLQGYSRIRESAIDACEGGMAEVGMCIAITLVNVPQSVWNACERCLLIASGQLQHEQKWSVLHFQVQRASELDEPIKSKTPMLAHIGFRKFYVSPLFSDISSGDRSKFARFFHEGDRFRMATFFGPISYNPCPLLLFQVPSLEEQAEGNPLRLACFGGSLPPNPETLLLKRAVLSGRVAVIHKKQVVVKYMFFNDEDIKWFQPVDLYTKFGRRGKITKPVGTHGLFKAVLNDQIMQHDVVCMDLFKRVFPKWTTVAFSMSDVPAGHTENEEER | not soluble
MIRMAQNNKELEKLAYEYQVLQAQAQILAQNLELLNLAKAEVQTVRETLENLKKIEEEKPEILVPIGAGSFLKGVIVDKNNAIVSVGSGYAVERSIDEAISFLEKRLKEYDEAIKKTQGALAELEKRIGEVARKAQEVQQKQSMTSFKVKK | soluble
MNHDIDIKKVRLNCFRQSKVPGEFMLQMRIPGGIVDAKYLSQIQEIAETWGNGTFHMGMRQTFNIPGIKYENIQAVNKFIENYLQEVEVDRCNCDMKVDENGYPTIGARNVMACIGNSHCIKANVDTKDMANKIEKLVFPSHYHIKVSVAGCPNDCAKGHFQDFGVIGQARMEYHEERCIGCGACVRACEHHATRVLSLNDKGLVDKDPCCCVGCGECVLACPASAWTRKPEKFYRIVIGGRTGKQTPRMGKTFINFATEEVVLGIFANWQKFSAWALDYKPEYLHGGHLIDRAGYHKFKEIILDGVELNPEALVADNIFWAETEYRSNFNVKPIKMHKTIESNRPLRLEHHHHHH | not soluble
MARVTTGITSSHIPALGAAIQTGTSDNDYWGPVFKGYQPIRDWIKQPGNMPDVVILVYNDHASAFDMNIIPTFAIGCAETFKPADEGWGPRPVPDVKGHPDLAWHIAQSLILDEFDMTIMNQMDVDHGCTVPLSMIFGEPEEWPCKVIPFPVNVVTYPPPSGKRCFALGDSIRAAVESFPEDLNVHVWGTGGMSHQLQGPRAGLINKEFDLNFIDKLISDPEELSKMPHIQYLRESGSEGVELVMWLIMRGALPEKVRDLYTFYHIPASNTALGAMILQPEETAGTPLEPRKVMSGHSLAQA | soluble
MNQFYKRHFLRLLDFTPAEIIALLDLATELKKDKKSGCEQQKLVGKNIALIFEKDSTRTRCSFEVAAYDQGARVTYLGPGGSQIGHKESIKDTARVLGRMYDGIQYRGYGQRVVETLAEFAGVPVWNGLTDEFHPTQLLADLLTMREHLPNKSLNKMTLAYLGDTRNNMGNSLLEAAALVGMDLRLVAPKACWPEEAFVISCQALAQKTGGKITLTEDIAEGVNGADFLYTDVWVSMGEPKEVWQERINLLKPYQVNMRVLTLTGNPQVKFLHCLPAFHDDQTTIGKQMAEQYDLPGGMEVTEEVFESAHSIVFDQAENRLHTIKAVMVATMSKI | not soluble
MGSDKIHHHHHHVVNAIEVSDISKQFVLRHTRSIKEAVVWLAKGRKGDLSEKFHALKNVTLEVKTGETVALLGLNGSGKSTLLKHISGVMLPDSGTVRTRGRVAGLIEVGAGFHPDLSGRDNVYLNGAILGMTEQQVNDRFDDIVEFSETGQFIDTEVKFYSSGMYLRLAFSVAVHTDPEVFLIDEILAVGDEPFQRKCIDKIQELARNGKTLVVVSHDLDLVSRICARGILLEHGNVKFDGSIHDAVALLRA | not soluble
MGSDKIHHHHHHGDGNITTENIPVSEYDCLELEGGGMVVNYTQSDAPEGLEIKTDRNIFEKYEFNVENHKLKIRPKKEFRKHTNFRPTEFMVTANSRNLKKLAAAGSTHVNINSPLQAEEFEAGLAGSGIIQFHDTASFTNLKIEIAGSGDFVGHKVYCEELNGDMAGSNTIVLGGTVGIAEFSIAGSGTVRAFDCTMDELECKIAGSGDIEAFVVNKIKAEIAGSGSVKYKGDPQDIQKKVMGSGKIEKVE | not soluble
MAFEATKREWCELYTFFRLLTEGKVTLGTAKAKKGEIDWPIAMIQREEHDGTRCYYIEKEMVRIKGENSEKFVPREDFGIVADLILQAVKSSSEDEVTSPDGVEEFLDEVAIFDLEAKTEDRTDFYIAFWHPEAPLSGFSVRSRLGAMNPLLDGGRAANLKLEQSGVKFATPTVNKINALPEAPNEVAERMLLIERLGGVLKYSDVADRVFRSNLLMIDLHFPRVLTEMVRIMHLDDITRISELTEVIKQMNPLKIKDELVNKHGFYEFKVKQFLMALALGMRPAKIYTGQDSAVEGILLMDGSGEVLCYHKSEKPVMEDFLFLNTRLEKGSLDKDKYGFLERENGTYYFKLNAKIGLVKR | not soluble
MINLSNLSAVATSVARAALGESNTSKINHAFDVASHIAGQTALRVGNSLLEQINRLNERQQQGLSEILKALRGEKPVDGVHTHSGGGLFKLARAAFDVVSVVWERDKLKPHVMSFLKALDSQGKTLFSLGKEMAKAFAESVQGPDKNNGKTESSPYASFASKVGMSKVVQRLFNELGRPGAERVRRPTSGPAPRPGGAEQQARPETPPRTRPQANGAPPPPPKAEPRPSSGRPGGAQQQARPETPPRSRPQTNSAPPPPRAEPRPASGRPGGAQQQARPETPPRSRPQTNSAPPPPKAEPRPSSGRPGGAQQQARPETPPRSRPQTNNAPPPRSNNTAGASASAKVGESGPAKPAVKPLYEWLGLSDMTASPAAVKKAYYNASMKHHPDKNPGDAGATARFQDISNAFSILSDPEKRKAYDSGRMNEKGQYV | not soluble
HQWQADEEAVRSATCSFSVKYLGCVEVFESRGMQVCEEALKVLRQSRRRPVRGLLHVSGDGLRVVDDETKGLIVDQTIEKVSFCAPDRNHERGFSYICRDGTTRRWMCHGFLACKDSGERLSHAVGCAFAVCLER | soluble
MWSCPTLNAPRAAQKWLPVRATPHLCVLHMSRLMLSSTLIDELSYVRKDQLETSALFELIAHRYERHSIAITANEPFSGWSDAMTVAAIDRLVHHSTIIEMNGESYRKRAAVARGASTQNANDEPEDPPNRSSLEHHHHHH | not soluble
MILKPIGVVKSPFKTQNDAPRQGRFSDAVSEIAIFDEYADGLHKIENLRHIIVLYWMDKASRDKLRVVPPGETEERGVFTTRSPSRPNPIGLCVVEILEVERNRLKVRWLDALDGSPVIDIKKYSPEIDCVNQLEGQQP | not soluble
MKLFISPGACSLAPHIALRETGADFEAVKVDLAVRKTEAGEDFLTVNPSGKVPALTLDSGETLTENPAILLYIADQNPASGLAPAEGSLDRYRLLSRLSFLGSEFHKAFVPLFAPATSDEAKAAAAESVKNHLAALDKELAGRDHYAGNAFSVADIYLYVMLGWPAYVGIDMAAYPALGAYAGKIAQRPAVGAALKAEGLA | soluble
